# From patent US20160122387A1, “Angiotensin Peptide and Pharmaceutical Compositions for Disease Treatment” (UNIVERSIDADE FEDERAL DE MINAS GERAIS - UFMG, priority 2012, published 2016)
# Square brackets hold non-standard residues; d marks the D form. Ends that are not written are not given here.
# How the values were obtained:
# rat receptor Mas (rat) = rat receptor Mas (rat) (UniProt P12526); experiment: cell-based or functional assay
# Mas receptor [1] = target: T1, Mas receptor (Rattus norvegicus, UniProt P12526); experiment: Vasorelaxation in SHR mesenteric rings in the presence of Mas receptor antagonist A-779
# T1 construct: from tissue; host or cells: SHR rat thoracic aorta rings and mesenteric artery rings
# T1 sequence (P12526 1-324): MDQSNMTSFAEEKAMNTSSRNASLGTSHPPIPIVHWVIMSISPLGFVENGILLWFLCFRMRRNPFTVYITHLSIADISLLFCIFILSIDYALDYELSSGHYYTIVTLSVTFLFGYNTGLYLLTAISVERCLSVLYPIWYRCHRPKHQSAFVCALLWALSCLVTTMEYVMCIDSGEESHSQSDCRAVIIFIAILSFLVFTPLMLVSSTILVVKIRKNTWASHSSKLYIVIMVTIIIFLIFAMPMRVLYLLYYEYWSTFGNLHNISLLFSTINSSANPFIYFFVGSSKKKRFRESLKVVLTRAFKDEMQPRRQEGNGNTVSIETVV
# Description: Rings (2.0 mm) of mesenteric artery (2nd and/or 3rd branches) in spontaneously hypertensive rats (SHR), free from adipose and connective tissue, were maintained in a gasified solution (95% 02 and 5% CO2) of Krebs-Hanseleit, at 37° C. After a 15 minute stabilization period, the artery was stretched, gradually, to a resting tension considered optimal with respect to its inner diameter. For this, in each arterial segment, the voltage/diameter was calculated by internal circumference which corresponds to a transmural pressure of 100 mmHg for a relaxed vessel in situ (IC100) using software specific for standardization resistance arteries. For the experiments, the arteries were maintained with an internal circumference, IC1, calculated using the formula IC1=0.90×IC100, in which the development of strength is maximum, as previously described by Mulvany and Halpern (1977). The effective luminal diameter was determined according to the I1=IC1/π equation. […]
# The presence of functional endothelium was assessed by the ability of acetylcholine [ACh] […] The mechanical activity was recorded isometrically using a myograph, which was connected to a system for data acquisition and to a computer.
# The SHR vessels were pre-contracted with sub-maximal concentrations of phenylephrine (0.1 μmol/L). […] The result was expressed as a percentage of decrease in peak concentration induced by phenylephrine. […]
# Mas receptor [2] = target: T1, Mas receptor; experiment: Vasorelaxation in SHR aortic rings in the presence of Mas receptor antagonists A-779 and D-Pro
# Description: Three- to four-mm rings of the descending thoracic aorta in spontaneously hypertensive rats (SHR), free from adipose and connective tissue, were maintained in a gasified solution (95% 02 and 5% CO2) of Krebs-Henseleit, at 37° C. under a tension of 1.0 g for 1 hour for stabilization. The presence of functional endothelium was assessed by the ability of acetylcholine [ACh] (10 μmol/L) to induce more than 70% relaxation of vessels pre-contracted with phenylephrine (0.1 μmol/L). The mechanical activity, recorded isometrically by a force transducer, was fed into a recorder-amplifier and a computer equipped with an analog-digital converter board, using CVMS data acquisition/recording software.
# The SHR vessels were pre-contracted to the same voltage level (approximately 1.0 g tension) at the submaximal concentration of phenylephrine (0.1 μmol/L). Mas receptor antagonists, A-779 and D-Pro, were added to […] immediately before adding the arg0-Ang-(1-7) in increasing cumulative concentrations. Results are presented as mean±SEM. One-way analysis of variance (ANOVA) with the Newman-Keuls post-test for multiple comparisons was used to compare the concentration response curves obtained in the aortic rings. The result was expressed as the percentage of decrease in peak concentration induced by phenylephrine. All statistical analyses were considered significant when p<0.05.
substance,measurement,setting,value
arg0-angiotensin-(1-7) (peptide),Emax of vasorelaxation by arg0-Ang-(1-7) in SHR mesenteric artery rings in the presence of A-779,rat receptor Mas (rat),14.1%
same,Emax of vasorelaxation by arg0-Ang-(1-7) in SHR rat aortic rings in the presence of A-779,rat receptor Mas (rat),14%
same,Emax of vasorelaxation by arg0-Ang-(1-7) in SHR rat aortic rings in the presence of D-Pro,rat receptor Mas (rat),11%
Asp-Arg-Val-Tyr-Ile-His-D-Ala (DRVYIH[dA]) [A-779],antagonist effect on the vasorelaxation produced by arg0-Ang-(1-7),Mas receptor [1],blocked the vasorelaxant effect of the peptide
same,antagonist effect on the vasorelaxation produced by arg0-Ang-(1-7),Mas receptor [2],blocked the vasorelaxant effect of the peptide
